The values that follow come from PMC2646144, “Crucial Role of the CB3-Region of Collagen IV in PARF-Induced Acute Rheumatic Fever” (PLoS ONE, 2009).

The target of this experiment is T1, GST-M3-protein (recombinant streptococcal M-protein type 3) (S. pyogenes).
T1 construct: M-protein type 3 (M3-protein) of Streptococcus pyogenes; emm3 amplified from chromosomal DNA of the M3 strain with primers M3-1 (BamHI) and M3-3 (SalI); The GST tag is named on the protein for electron microscopy and the pull-down; also called M3-GST; GST-tagged M-protein type M3; source: E. coli, pGEX6P-1, purified under native conditions; not shown: GST, N-terminal, kept
Briefly: SPR; BIAcore 2000, CIV or CB3 immobilised on CM5 chip by amine coupling, M3-protein injected at 6.25-50 µg/ml, 10 mM HEPES, 100 mM NaCl, pH 7.4; apparent dissociation constants. The settings on record: both partners purified.

B1: Cyanogen bromide fragment 3 (CB3) of collagen type IV (domain or fragment)
chain 1: PGVGEKGEPGKPGPRGKPGKDGDKGEKGSPGFPGEPGYPGLIGRQGPQGEKGEAGPPGPPGIVIGTGPLGEKGERGYPGTPGPRGEPGPKGFPGLPGQPGPPGLPVPGQAGAPGFPGERGEKGDRGFPGTSLPGPSGRDGLPGPPGSPGPPGQPGYTNGIVECQPGPPGDQGPPGIPGQPGFIGEIGEKGQKGESCLICDIDGYRGPPGPQGPPGEIGFPGQPGAKGDRGLPGRDGVAGVPGPQGTPGLIGQPGAKGEPGEFYFDLRLKGDKGDPGFPGQPGM
chain 2: GFPGLRGYPGLSGEKGSPGQKGSRGLDGYQGPDGPRGPKGEAGDPGPPGLPAYSPHPSLAKGARGDPGFPGAQGEPGSQGEPGDPGLPGPPGLSIGDGDQRRGLPGEM
chain 3: GPKGFIGDPGIPALYGGPPGPDGKRGPPGPPGLPGPPGPDGFLFGLKGAKGRAGFPGLPGSPGARGPKGWKGDAGECRCTEGDEAIKGLPGLPGPKGFAGINGEPGRKGDRGDPGQHGLPGFPGLKGVPGNIGAPGPKGAKGDSRTITTKGERGQPGVPGVPGM
modifications: 125I (chloramine T method) in the pull-down, bacterial binding and overlay assays | 125I (chloramine T method) in the pull-down, bacterial binding and overlay assays
For B1, the Kd is 60 nM.
